The results in this text go back to a protein production outcome set (Wang et al. 2014).

This data set in a line: label from the status in PepcDB records.
“MSLIFTAIVVFLFILAIFDLIVGVSNDAVNFLNSAIGAKAAPFKIIVGVAALGVFCGAAMNNGMMEIARHGIFRPEHYTFSELMVVFLSVVITDVVLMDMFNSLGMPTSTTVSLIFELLGGSFFMAMTKVGGTVGFQDLLNTEKALSVILGIFLSVGIAFFFGMVVQYLSRLLFTFNYRRNLRWLAGLFGGVAVTSIIYFMLIKGLKGVSFMTEESTAWIAANTGRLVLYCLVVSIILMQVLYWLRVNVFKVIVLLGTFALAMAFAGNDLVNFIGVPLAGYSSYLDFNANGNGQYDTYLMGALNEPASTPVYFLVAAGIVMVYALITSKKAHNVIKTSVDLARQEEGEEMFGSSGLARSIVRFSTTTANAVSRIIPRPVGRWIDSRFNQDELIMAKGAAFDLVRASVNLVLAGLLIAFGTSLRLPLSTTYVAFMVAMGTSLADRAWSRESAVFRITGVFSVIGGWFITAGAAFILCFLVTMVNHFGGYPAMAGMIILAIFLLVRSHIRFDKKKKSETKDTVFIDMMASHDKEEIWQLLAKHIRQKQLALLDFAENNYMQMTDGFINEDLKRLRRSINDQNAERQMLKVNRRKETLGIRRIEEAKSVVKNTWFHLGCNSCEQIVFCLKRIAEPCKEHVDNNFNPLPKVCVSEFLAAREKLILYIKEAKLIVSNETDEILDPMTYRGKDIKKELKQLRKTQLSRIQQGASSLKISLVYLNLLQESQQLVNILDDLIHATEKLFDPVARIGTDEEFFN”: the protein production entry is “failed”. Regarding “MSLILESLVTTLDEQGRINLAPLGPIVLPPQSPGGLPQFLLRPYEGSTTCDNLLASGNAVIHVIDDALLIAKTAIGKVDASDLVVPIPGLEDTHVRLKRCHRWFAVRVTQRAGTPPRHELTARCLASGLVDPFFGFNRAKHAVIEAAVAATRLHLLPPEEIEEELERARIAIEKTGGEPEREALQLIRRHVRESSISEGHHHHHH”, the protein production result is reported as “not failed”.

Regarding “MSLINARLIAFEDQWVPALNAPLKQAILADSQDAQLAAAMTYSVLAGGKRLRPLLTVATMQSLGVTFVPERHWRPVMALELLHTYSLIHDDLPAMDNDALRRGEPTNHVKFGAGMATLAGDGLLTLAFQWLTATDLPATMQAALVQALATAAGPSGMVAGQAKDIQSEHVNLPLSQLRVLHKEKTGALLHYAVQAGLILGQAPEAQWPAYLQFADAFGLAFQIYDDILDVVSSPAEMGKATQKDADEAKNTYPGKLGLIGANQALIDTIHSGQAALQGLPTSTQRDDLAAFFSYFDTERVNEGHHHHHH”, the protein production entry is recorded as “not failed”.

Turning to “MSLIPKFRAWDTYEKEMLENVTPLFDDSNSMIAIITDFQIKGSPGTSEIEIGSYDTTFNWDEFPYVIMQSTGLKDKNGVEIFEGDILVYDAPKKYAHRRSMHEIAYADGRFFWEFLDLVFCQSNILYRDGYLVIGNIHENPELLEGNEGHHHHHH”, the protein production result is “not failed”. In the case of “MSLIPKVSVIVPIYNVEKYLDQCVQALLAQTLSDIEIILIDDESPDNCPKICDDYAAQYPNIKVIHKKNAGLGMACNSGLDVATGEYVAFCDSDDYVDSDMYMTMYNVAQKYTCDAVFTGLKRITMAGIPTGTVTHQKEFKLYKNKNEIHTLLKDLIASDPYAREERAIQVSAKVVLYRRNLIEKKHLRFVSERILPSEDLIFNVDVLANSNIVCVLPQTFYNYRTNPISISEGHHHHHH”, the protein production entry is given as “not failed”.

Turning to “MSLKEFKIGWFATILGTGGVAIASLPYFPVLSVVLTYLLTAIFVILTAVWLAKIIRYPRVVAAELGHFVMGNFYPLQPISAVILAILYRKLGIPLDLPLLAYGAGLILVLTVYLSYHFFANVKAEIHHIHGGWFIPPVSTILVTDALLQYSPNETFFVTSLIYFGIGLMLFLFISTILFLRLVNHELPVFELAPTNFILLAPIGILIVDFTLIAKHAEAIFSANLVPLALIASISLWGFGLWALAVNILLLLRYLRQEMPFFLGWWSYVFPTAAYTLSTIALSHFVPVFSYAATALYAFLIAAWAIIGVRTVGIAIRGA”, the protein production result is on record as “failed”. Next, “MSLKFFLKAYARIAAIAAAVVLVCVLLFNGINSVREQYWHEQAMTPVMRWLAAAPDPLSQYHWMAPMFGLHSGVAADFGLSQVALERLGYGQVVAQSTDSGYGYYVLGLGGEVLGIHLEQPYRDLARAISLMVRWHLDTSPAAQRADVAQQLAESLNLDIRLVQKTEDLPDQQALERLGDTGLAIFEHGDNRARALVRLSEGALVVVTLPPPFNPWGWPIILLLTAVVGGVLAVALFLALRFVESHLRKVESVAIRIARGEMGARVESEQGTLVSRLGTSFNGMAEHIQRLVQVQREMIHAVSHELRTPVARIRFGVQMIESGSTQEVLEKQLEGIDGDIQELDELIDEILTYARLEQGGPVFSLREGSVTDIVRQVVSEQRLIREGVDIECQIDEASERWAQADMEPRYIHRAIQNLVGNAARYAAGRVQVSCHLDEDNCRIDVEDDGPGIPEQDWEKVFTAFARLDDSRTRTSGGYGLGLSIVRRILYWHGGQAFVGRSDVLGGARFSLVWPRLKPADPDL”: “failed”.
